# Results taken from patent US20240400715A1 (VIBRANT PHARMA, published 2024).
# Residue numbers refer to the chain shown, from its start. Several values for one entry are separate records, joined by “and”; a condition that tells them apart may be missing. Identical values can stand only once.
# B1: Knob-Fab+Hole-CEA (109) (bispecific antibody, human IgG4 S228P, kappa, F234A L235A)
# heavy: ESKYGPPCPPCPAPEAAGGPSVFLFPPKPKDTLMISRTPEVTCVVVDVSQEDPEVQFNWYVDGVEVHNAKTKPREEQFNSTYRVVSVLTVLHQDWLNGKEYKCKVSNKGLPSSIEKTISKAKGQPREPQVYTLPPCQEEMTKNQVSLWCLVKGFYPSDIAVEWESNGQPENNYKTTPPVLDSDGSFFLYSRLTVDKSRWQEGNVFSCSVMHEALHNHYTQKSLSLSLGGGGSGGGGSEVKLLESGGGLVQPKGSLKLSCAASGFTFNTYAMNWVRQAPGKGLEWVARIRSKYNNYATYYADSVKDRFTISRDDSQSILYLQMNNLKTEDTAMYYCVRHGNFGNSYVSWFAYWGQGTLVTVSSASTKGPSVFPLAPCSRSTSESTAALGCLVKDYFPEPVTVSWNSGALTSGVHTFPAVLQSSGLYSLSSVVTVPSSSLGTKTYTCNVDHKPSNTKVDKRV
# chain: ESKYGPPCPPCPAPEAAGGPSVFLFPPKPKDTLMISRTPEVTCVVVDVSQEDPEVQFNWYVDGVEVHNAKTKPREEQFNSTYRVVSVLTVLHQDWLNGKEYKCKVSNKGLPSSIEKTISKAKGQPREPQVCTLPPSQEEMTKNQVSLSCAVKGFYPSDIAVEWESNGQPENNYKTTPPVLDSDGSFFLVSRLTVDKSRWQEGNVFSCSVMHEALHNRFTQKSLSLSLGGGGSGGGGSEVQLVESGGGFVQAGESLTLSCTSSTLTFTPYRMAWYRQAPGKQRDLVADISSGDGRTTNYADFAKGRFTISRDNIKNTVFLRMTNLKPEDTAVYYCNTFVSFVGIARSWGQGTQVTVSS
# light: QAVVTQESALTTSPGETVTLTCRSSTGAVTTSNYANWVQEKPDHLFTGLIGGTNKRAPGVPARFSGSLIGDKAALTITGAQTEDEAIYFCALWYSNLWVFGGGTKVEIKRTVAAPSVFIFPPSDEQLKSGTASVVCLLNNFYPREAKVQWKVDNALQSGNSQESVTEQDSKDSTYSLSSTLTLSKADYEKHKVYACEVTHQGLSSPVTKSFNRGEC
# notes: Anti-CD3 TA1 Fab + anti-CEA VHH C17 on human IgG4 knob-into-hole Fc
# B2: Knob+CEA-Hole-Fab (111) (bispecific antibody, human IgG4 S228P, kappa, F234A L235A)
# chain: ESKYGPPCPPCPAPEAAGGPSVFLFPPKPKDTLMISRTPEVTCVVVDVSQEDPEVQFNWYVDGVEVHNAKTKPREEQFNSTYRVVSVLTVLHQDWLNGKEYKCKVSNKGLPSSIEKTISKAKGQPREPQVYTLPPCQEEMTKNQVSLWCLVKGFYPSDIAVEWESNGQPENNYKTTPPVLDSDGSFFLYSRLTVDKSRWQEGNVFSCSVMHEALHNHYTQKSLSLSL
# heavy: EVQLVESGGGFVQAGESLTLSCTSSTLTFTPYRMAWYRQAPGKQRDLVADISSGDGRTTNYADFAKGRFTISRDNIKNTVFLRMTNLKPEDTAVYYCNTFVSFVGIARSWGQGTQVTVSSESKYGPPCPPCPAPEAAGGPSVFLFPPKPKDTLMISRTPEVTCVVVDVSQEDPEVQFNWYVDGVEVHNAKTKPREEQFNSTYRVVSVLTVLHQDWLNGKEYKCKVSNKGLPSSIEKTISKAKGQPREPQVCTLPPSQEEMTKNQVSLSCAVKGFYPSDIAVEWESNGQPENNYKTTPPVLDSDGSFFLVSRLTVDKSRWQEGNVFSCSVMHEALHNRFTQKSLSLSLGGGGSGGGGSEVKLLESGGGLVQPKGSLKLSCAASGFTFNTYAMNWVRQAPGKGLEWVARIRSKYNNYATYYADSVKDRFTISRDDSQSILYLQMNNLKTEDTAMYYCVRHGNFGNSYVSWFAYWGQGTLVTVSSASTKGPSVFPLAPCSRSTSESTAALGCLVKDYFPEPVTVSWNSGALTSGVHTFPAVLQSSGLYSLSSVVTVPSSSLGTKTYTCNVDHKPSNTKVDKRV
# light: B1 light
# notes: as for B1
# B3: CEA-Knob+Hole-Fab (110) (bispecific antibody, human IgG4 S228P, kappa, F234A L235A)
# chain: EVQLVESGGGFVQAGESLTLSCTSSTLTFTPYRMAWYRQAPGKQRDLVADISSGDGRTTNYADFAKGRFTISRDNIKNTVFLRMTNLKPEDTAVYYCNTFVSFVGIARSWGQGTQVTVSSESKYGPPCPPCPAPEAAGGPSVFLFPPKPKDTLMISRTPEVTCVVVDVSQEDPEVQFNWYVDGVEVHNAKTKPREEQFNSTYRVVSVLTVLHQDWLNGKEYKCKVSNKGLPSSIEKTISKAKGQPREPQVYTLPPCQEEMTKNQVSLWCLVKGFYPSDIAVEWESNGQPENNYKTTPPVLDSDGSFFLYSRLTVDKSRWQEGNVFSCSVMHEALHNHYTQKSLSLSL
# heavy: B1 heavy with Y131C, C136S, W148S, L150A, Y189V, H217R, Y218F
# light: B1 light
# notes: Anti-CD3 TA1 Fab + anti-CEA VHH C17 on human IgG4 knob-into-hole Fc; also called CEA-CD3 bispecific antibody 110
# B4: Fab (Light)-Knob+Fab (Heavy)-Hole-CEA (210) (bispecific antibody, human IgG4 S228P, kappa, F234A L235A)
# chain: QAVVTQESALTTSPGETVTLTCRSSTGAVTTSNYANWVQEKPDHLFTGLIGGTNKRAPGVPARFSGSLIGDKAALTITGAQTEDEAIYFCALWYSNLWVFGGGTKVEIKRTVAAPSVFIFPPSDEQLKSGTASVVCLLNNFYPREAKVQWKVDNALQSGNSQESVTEQDSKDSTYSLSSTLTLSKADYEKHKVYACEVTHQGLSSPVTKSFNRGECESKYGPPCPPCPAPEAAGGPSVFLFPPKPKDTLMISRTPEVTCVVVDVSQEDPEVQFNWYVDGVEVHNAKTKPREEQFNSTYRVVSVLTVLHQDWLNGKEYKCKVSNKGLPSSIEKTISKAKGQPREPQVYTLPPCQEEMTKNQVSLWCLVKGFYPSDIAVEWESNGQPENNYKTTPPVLDSDGSFFLYSRLTVDKSRWQEGNVFSCSVMHEALHNHYTQKSLSLSL
# heavy: EVKLLESGGGLVQPKGSLKLSCAASGFTFNTYAMNWVRQAPGKGLEWVARIRSKYNNYATYYADSVKDRFTISRDDSQSILYLQMNNLKTEDTAMYYCVRHGNFGNSYVSWFAYWGQGTLVTVSSASTKGPSVFPLAPCSRSTSESTAALGCLVKDYFPEPVTVSWNSGALTSGVHTFPAVLQSSGLYSLSSVVTVPSSSLGTKTYTCNVDHKPSNTKVDKRVESKYGPPCPPCPAPEAAGGPSVFLFPPKPKDTLMISRTPEVTCVVVDVSQEDPEVQFNWYVDGVEVHNAKTKPREEQFNSTYRVVSVLTVLHQDWLNGKEYKCKVSNKGLPSSIEKTISKAKGQPREPQVCTLPPSQEEMTKNQVSLSCAVKGFYPSDIAVEWESNGQPENNYKTTPPVLDSDGSFFLVSRLTVDKSRWQEGNVFSCSVMHEALHNRFTQKSLSLSLGGGGSGGGGSEVQLVESGGGFVQAGESLTLSCTSSTLTFTPYRMAWYRQAPGKQRDLVADISSGDGRTTNYADFAKGRFTISRDNIKNTVFLRMTNLKPEDTAVYYCNTFVSFVGIARSWGQGTQVTVSS
# notes: Two-chain format; human IgG4 knob-into-hole Fc; also called CEA-CD3 bispecific antibody 210
# Target: T1, human CD3 on Jurkat cells (human, UniProt P07766 23-207; P04234 22-171; P09693 23-182)
# T1 construct: whole, on cells; CD3 complex as on Jurkat (Clone E6-1) cells; also called CD3 expressing cells (Jurkat)
# Assay: FACS, Jurkat cells;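 also: flow cytometric binding of bispecific antibodies to Jurkat T cells, threefold serial dilutions incubated half an hour in the cold, EC50 taken from the fitted binding curve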
row,EC50,Binder
1,12.1 µg/mL and 93 nM,B1
2,7.6 µg/mL and 58.5 nM,B2
3,8.88 µg/mL and 68.3 nM,B3
4,2.08 µg/mL and 16 nM,B4

# Target: T2, human CD3ε/δ (ACRO systems, CDD-H52W1) (human, UniProt P07766 23-126; P04234 22-105)
# T2 construct: Bought protein; also called human CD3ϵ/CD3δ; human CD3 epsilon/delta antigen
# Assay: BLI, antibody captured, antigen in solution;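 also: bispecific antibodies captured on AHIC biosensors to a 1.5 nm loading signal, in PBST with 0.02% detergent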
# Method: The bispecific antibodies were diluted to 5 ag/ml, and 1.5 nm protein was coupled to the surface of the AHIC sensor chip through 0.02% PBST.
Kd [nM],koff [s⁻¹],kon [M⁻¹ s⁻¹],Binder
1.67,0.000485,291000,B1
2.08,0.000694,333000,B2
1.98,0.000565,285000,B3
2.83,0.000689,243000,B4
